Measurements published in patent US20240384250A1, “FIBROBLAST GROWTH FACTOR 23 MODULATING COMPOUNDS” (THE UAB RESEARCH FOUNDATION, priority 2021, published 2024).
Entries after “also recorded” stand apart in the source; their conditions may differ.

Experiments:
[1] = Half-life of recombinant sKL in the circulation of rats; type: in vivo, rat; conditions: tail vein injection 100 μg/kg
Procedure: To determine the half-life of recombinant sKL protein in the circulation, rats were injected with the Strep-tagged mouse sKL that was purified as described above. Each group consisted of 3 male Sprague Dawley rats (9 weeks of age and weighing approximately 300 g). For injections and bleeding, rats were anesthetized with 2.5% isoflurane. For injections, a shielded i.v. catheter (BD Insyte Autoguard 0.7×19 mm, catalog no. 381412) was inserted into the lateral tail vein and flushed with 100 μl of isotonic saline (0.9%). One milliliter of purified sKL protein dissolved in isotonic saline (100 μg/kg) or isotonic saline was then injected, and the catheter was flushed again with 100 μl of isotonic saline. For bleeding, a shielded i.v. catheter was inserted into the lateral tail vein. Blood samples (300 μl) were taken after 1, 3, 5, 10, 15, 30, and 60 minutes as well as 3, 6, 12, and 48 hours. For collections from 15 minutes to 48 hours postinjection, a separate i.v. catheter was inserted each time to draw blood. For collections from 1 to 15 minutes post-sKL injection, the same i.v. catheter was used, and to exclude contamination with the previous draw, the catheter was flushed with isotonic saline between each sample. […] Serum was then aliquoted and stored at approximately […] before analysis. For the sKL activity assay, wells were coated with 500 ng of mouse FGF23 in 100 μl of coating buffer (E107, Bethyl Laboratories) at 4° C. overnight. Plates were washed 5× at 350 μl of assay buffer (50 mM Tris, [pH 7.4] 200 mM NaCl, 0.01% Tween 20) on a 50 TS microplate washer (BioTek). Plates were blocked for 1 hour in 200 μl of assay buffer with 0.5% BSA. Plates were washed and incubated with 30 μl per well and 70 μl of assay buffer with 0.5% BSA. Standards were run at noted concentrations by using purified Strep-tagged mouse sKL protein with 30 μl of control serum and 70 μl of assay buffer with 0.5% BSA added to ensure consistency. All samples and standards were run in triplicates. After 1 hour, plates were washed, and 150 ng of Fc-FGFR1c were incubated on plates in 100 μl of assay buffer with 0.5% BSA. After 1 hour, plates were washed and incubated with anti-human Fc-HRP at 1:10,000. Plates were washed as above and 100 μl of TMB substrate (E102, Bethyl Laboratories) was added for 15 to 20 minutes until positive wells developed a dark blue color. Reactions were stopped with ELISA stop solution (E115, Bethyl Laboratories) and analyzed using the Synergy HI plate reader (BioTek) at 450 nm wavelength. Amounts of sKL were calculated by taking the slope of the standard curve and calculating where the sample points fit in.

[2] = molecular target: T1, FGF23 (Homo sapiens, UniProt Q9GZV9); assay: Co-immunoprecipitation of FGF with FLAG-tagged sKL on anti-FLAG beads; type: binding; conditions: absence of FGFR
T1 construct: purchased R&D Systems 2604FG025/CF (human) or 2629FG025/CF (mouse)
T1 sequence (Q9GZV9 25-251): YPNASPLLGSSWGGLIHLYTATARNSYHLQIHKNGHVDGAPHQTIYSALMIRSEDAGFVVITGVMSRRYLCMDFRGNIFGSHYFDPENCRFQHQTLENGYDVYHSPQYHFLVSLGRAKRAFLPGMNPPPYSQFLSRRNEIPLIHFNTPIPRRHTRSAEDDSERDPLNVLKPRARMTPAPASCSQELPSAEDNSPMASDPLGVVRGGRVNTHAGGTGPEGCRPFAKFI
Procedure: To study the interaction between FLAG-tagged sKL and different FGF isoforms, co-immunoprecipitation studies were conducted. FLAG beads (A2220, Sigma-Aldrich) were used at 50 ul of 50% stock slurry per sample. Beads were washed 5× with activity buffer (50 mM Tris [pH 7.4], 200 mM NaCl, 0.01% Tween 20, Sigma-Aldrich). Bead spin-down assays were all performed for 2 minutes at 5000 g. Fifty microliters of a 50% slurry of beads per sample was resuspended in 1 ml of activity buffer in a 1.5-ml snap cap tube. One microgram of FLAG-tagged sKL or Carboxy-terminal bacterial alkaline phosphatase (BAPC; P7457, Sigma-Aldrich) was incubated with the beads for 1 hour on a bead rotator. Beads were then pelleted at 5000 g for 2 minutes and washed 5× with activity buffer. Beads were resuspended in 1 ml of activity buffer and samples with 500 ng of FGF. Beads were incubated for 1 hour on a tube rotator, and beads were pelleted and washed as before. One hundred microliters of I× Laemmli sample buffer (1610737, Bio-Rad) with 1.42 M 2-mercaptoethanol was added, and samples were boiled for 5 minutes and analyzed using sodium dodecylsulfate-polyacrylamide gel electrophoresis (SDS-PAGE) and Western blotting, as described below herein.
The sample (20 μl) was loaded onto Mini-PROTEAN TGX Precast Gel 4-20% for experiments with <9 samples (4568094, Bio-Rad) or Criterion TGX Precast Gel 4-20% (5678094, Bio-Rad) for experiments with >9 samples. Gels were run in 1× Tris/Glycine/SDS buffer (1610732, Bio-Rad) at 150 V and stopped when the sample dye reached the end of the gel. Gels were removed and electrotransferred via a semi-dry cassette (1703940, Bio-Rad) in I× Tris/Glycine buffer (1610734, Bio-Rad) with 20% methanol. Gels were transferred onto polyvinylidene diflouride membranes (IPVH00010, Millipore) at 20 V for 1 hour. Membranes were then blocked in 5% dried milk with 0.5% Tween 20 diluted in Tris-buffered saline (TBST; pH 7.5) for 1 hour and probed with antibodies against specific antigens at 1:1000 in TBST with 5% dried milk. Blots were washed 3× for 5 minutes in TBST and probed with HRP-coupled secondary antibodies against specific species at 1:10,000 in TBST with 5% dried milk. Membranes were imaged on the SRX-101A X-ray film developer (Konica Minolta).

[3] = Serum phosphate and intact FGF23 after sKL injection in rats; type: in vivo, rat; conditions: sKL 100 μg/kg tail vein
Procedure: To determine the half-life of recombinant sKL protein in the circulation, rats were injected with the Strep-tagged mouse sKL that was purified as described above. Each group consisted of 3 male Sprague Dawley rats (9 weeks of age and weighing approximately 300 g). For injections and bleeding, rats were anesthetized with 2.5% isoflurane. For injections, a shielded i.v. catheter (BD Insyte Autoguard 0.7×19 mm, catalog no. 381412) was inserted into the lateral tail vein and flushed with 100 μl of isotonic saline (0.9%). One milliliter of purified sKL protein dissolved in isotonic saline (100 μg/kg) or isotonic saline was then injected, and the catheter was flushed again with 100 μl of isotonic saline. For bleeding, a shielded i.v. catheter was inserted into the lateral tail vein. Blood samples (300 μl) were taken after 1, 3, 5, 10, 15, 30, and 60 minutes as well as 3, 6, 12, and 48 hours. For collections from 15 minutes to 48 hours postinjection, a separate i.v. catheter was inserted each time to draw blood. […] Reactions were stopped with ELISA stop solution (E115, Bethyl Laboratories) and analyzed using the Synergy HI plate reader (BioTek) at 450 nm wavelength. Amounts of sKL were calculated by taking the slope of the standard curve and calculating where the sample points fit in.

B1: sKL: recombinant soluble α-klotho ectodomain, mouse aa 35-982 and human aa 34-981, FLAG- or Strep/His-tagged, purified from HEK293 cells (protein)
chain: EPGDGAQTWARFSRPPAPEAAGLFQGTFPDGFLWAVGSAAYQTEGGWQQHGKGASIWDTFTHHPLAPPGDSRNASLPLGAPSPLQPATGDVASDSYNNVFRDTEALRELGVTHYRFSISWARVLPNGSAGVPNREGLRYYRRLLERLRELGVQPVVTLYHWDLPQRLQDAYGGWANRALADHFRDYAELCFRHFGGQVKYWITIDNPYVVAWHGYATGRLAPGIRGSPRLGYLVAHNLLLAHAKVWHLYNTSFRPTQGGQVSIALSSHWINPRRMTDHSIKECQKSLDFVLGWFAKPVFIDGDYPESMKNNLSSILPDFTESEKKFIKGTADFFALCFGPTLSFQLLDPHMKFRQLESPNLRQLLSWIDLEFNHPQIFIVENGWFVSGTTKRDDAKYMYYLKKFIMETLKAIKLDGVDVIGYTAWSLMDGFEWHRGYSIRRGLFYVDFLSQDKMLLPKSSALFYQKLIEKNGFPPLPENQPLEGTFPCDFAWGVVDNYIQVDTTLSQFTDLNVYLWDVHHSKRLIKVDGVVTKKRKSYCVDFAAIQPQIALLQEMHVTHFRFSLDWALILPLGNQSQVNHTILQYYRCMASELVRVNITPVVALWQPMAPNQGLPRLLARQGAWENPYTALAFAEYARLCFQELGHHVKLWITMNEPYTRNMTYSAGHNLLKAHALAWHVYNEKFRHAQNGKISIALQADWIEPACPFSQKDKEVAERVLEFDIGWLAEPIFGSGDYPWVMRDWLNQRNNFLLPYFTEDEKKLIQGTFDFLALSHYTTILVDSEKEDPIKYNDYLEVQEMTDITWLNSPSQVAVVPWGLRKVLNWLKFKYGDLPMYIISNGIDDGLHAEDDQLRVYYMQNYINEALKAHILDGINLCGYFAYSFNDRTAPRFGLYRYAADQFEPKASMKHYRKIIDSNGFPGPETLERFCPEEFTVCTECSFFHTRKS
modifications: left off: small tags and cut ends
notes: recombinant soluble α-klotho ectodomain, mouse aa 35-982 and human aa 34-981, FLAG- or Strep/His-tagged, purified from HEK293 cells
time postinjection from which sKL could no longer be detected [1]: ≥ 3 h | time post-injection after which sKL levels were reduced by about half ([1]; earlier time points): approximately 10 minutes | half-life in the circulation ([1]; serum, listed as recombinant sKL protein): approximately 10 minutes | serum sKL level at the 15-minute time point ([1]; versus vehicle): high levels of sKL were detected | FGF23 co-precipitation with immobilized FLAG-sKL ([2]; listed as FLAG-sKL): bound FGF23 | FGF23 co-precipitation with immobilized FLAG-sKL ([2]; listed as FLAG-tagged sKL): FGF23 could be co-precipitated | serum phosphate levels ([3]; serial bleeds): not significantly altered | serum intact FGF23 levels ([3]; serial bleeds incl. 48 hours): increases in serum concentrations of FGF23; also recorded: significantly elevated
